Test [1] addresses T1, human-derived transmembrane HB-EGF protein (wild type HB-EGF) (human, UniProt Q99075 20-208).
T1 construct: also called human HB-EGF protein; cell surface HB-EGF
In words: flow cytometry with 293T culture supernatant as primary antibody (the FIG. 11 legend says ELISA). Here is the method: The reactivity of the 35-1 chimeric antibody or the 35-1 humanized antibody with HB-EGF was evaluated by the flow cytometry.
The antibody concentration in the culture supernatant was calculated according to a sandwich ELISA method. […] After the plate was washed with 0.05% Tween 20-PBS, an HRP-labeled goat anti-mouse IgG (manufactured by MBL Co., Ltd., code number: 330) having been diluted to 1/10000 was added as a detection antibody in an amount of 50 μL/well and left to stand at room temperature for 1 hour. After the plate was washed with 0.05% Tween 20-PBS, a color developing solution was added thereto in an amount of 50 μL/well and left to stand at room temperature for 20 minutes to develop a color. The color development was terminated by adding 1 M phosphoric acid in an amount of 50 μL/well. Then, the absorbance at 450 nm was measured with a plate reader. Regarding the antibody concentration in the culture supernatant, a standard curve was created based on measured values obtained by serially diluting the antibody solution of a known concentration, and the antibody concentration was calculated from the measured values of the culture supernatant.
For orientation: A flow cytometer gives signals particle by particle.

Test [2] addresses T1, human-derived transmembrane HB-EGF …. In words: flow cytometry on HB-EGF-expressing cells (summary of the selection).
The next test has as its target mutant HB-EGF F115A (human, UniProt Q99075 20-208). Kind of test: flow cytometry on 293T cells transiently expressing the mutant, antibody 5 µg/mL. As to the method:
(§1) First, prepared were cells expressing amino acid point mutant HB-EGF to be subjected to the flow cytometry. To be more specific, genes encoding mutant HB-EGF shown in Table 1 were prepared by site-directed mutagenesis using the HB-EGF-pQCxmhIPG as a template. The obtained mutant HB-EGF genes were each inserted into an animal cell expression vector pQCxmhIPG to prepare a vector encoding each mutant HB-EGF. […] Thus, cells expressing amino acid point mutant HB-EGF were prepared.
(§2) Next, each of the anti-HB-EGF antibodies (5 μg/mL) and a secondary antibody (manufactured by Beckman Coulter, Inc., catalog number: IM0855, this antibody was diluted to 1/200 for use)) were allowed to react with the cells expressing the wild type HB-EGF or each mutant HB-EGF, and the mean fluorescence intensity was analyzed by the flow cytometry. […] Then, based on the obtained mean fluorescence intensity (antibody reactivity), the binding strength (relative value) of each anti-HB-EGF antibody to each mutant HB-EGF was calculated according to the following formula (Formula *).

The next test addresses mutant HB-EGF I117A (human, UniProt Q99075 20-208). The test is described as above. Here is the method: as §1, §2

T1 sequence (Q99075 20-208): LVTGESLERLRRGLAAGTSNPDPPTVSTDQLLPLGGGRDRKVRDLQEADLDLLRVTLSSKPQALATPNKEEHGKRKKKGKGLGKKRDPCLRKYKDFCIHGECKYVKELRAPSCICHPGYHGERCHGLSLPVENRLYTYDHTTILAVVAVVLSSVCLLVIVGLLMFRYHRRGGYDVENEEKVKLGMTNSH
Chain of mutant HB-EGF I117A (Q99075 20-208 I117A): as the sequence (Q99075 20-208) above, with I98A counted along it
Chain of mutant HB-EGF F115A (Q99075 20-208 F115A): as the sequence (Q99075 20-208) above, with F96A counted along it

B1: 35-1 humanized antibody (antibody, V domains shown)
VH: QVQLVQSGAEVVKPGSSVKVSCKASGYSFSGYYMHWVKQAPGQGLEWIGEINPSTGGITYNQKFKAKATLTVDRSTSTAYMELKSLTSEDTAVYYCTRITWAFAYWGQGTTVTVSS
VL: QIVLTQSPTTMAASPGEKITITCSASSSVTYMYWYQQRPGFSPKLLIYDTSNLASGVPVRFSGSGSGTSYSLTIGTMEAEDVATYYCQQWSSYPPTFGGGTKLEIK
notes: CDR-grafted variable regions in a Lonza human IgG1 vector (human IgG1 constant region); also called humanized 35-1 antibody
As for B1, in test [1], the binding result was “binds”.

B2: 35-1 antibody (antibody, mouse IgG1, V domains shown)
VH: EVQLQQSGPELVKPRASVKISCKASGYSFSGYYMHWVKQSPEKSLEWIGEINPSTGGITYNQKFKAKATLTVDRSSSTAYMQLKSLTSEDSAVYYCTRITWAFAYWGQGTLVTVSA
VL: QIVLTQSPAIMSASPGEKVTMTCSASSSVTYMYWYQQKPGSSPRLLIYDTSNLASGVPVRFSGSGSGTSYSLTISRMEAEDAATYYCQQWSSYPPTFGGGTKLEIK
notes: Variable genes were amplified with mouse IgG1 CH1 and kappa constant region primers
With B2, the binding result (in test [2]; with mutant HB-EGF F115A; with mutant HB-EGF I117A) was “binds” each time.

B3: 35-1 chimeric antibody (antibody, V domains shown)
VH: EVQLQQSGPELVKPRASVKISCKASGYSFSGYYMHWVKQSPEKSLEWIGEINPSTGGITYNQKFKAKATLTVDRSSSTAYMQLKSLTSEDSAVYYCTRITWAFAYWGQGTLVTVSA
VL: QIVLTQSPAIMSASPGEKVTMTCSASSSVTYMYWYQQKPGSSPRLLIYDTSNLASGVPVRFSGSGSGTSYSLTISRMEAEDAATYYCQQWSSYPPTFGGGTKLEIK
notes: Variable regions of the 35-1 antibody in Lonza human IgG1 antibody producing vectors (human IgG1 constant region); also called chimerized 35-1 antibody
Take B3: in test [1], the binding result is recorded as “binds”.

B4: 292 antibody (antibody, mouse IgG1, V domains shown)
VH: EVQLQQSGPELVKPGASVKISCKASGYSFTGYYMHWVKQSPEKSLEWIGEINPSTGGTTYNQKFKAKATLTLDKSSSTAYMQLKSLTSEDSAVYYCAKSPYWDGAYWGQGTLVTVSA
VL: QIVLTQSPAIMSASPGEKVTMTCSASSSISYMYWYQQRPGSSPRLLIYDTSNLASGVPVRFSGSGSGTSHSLTISRMEAEDAATYYCQQWSSYPSTFGGGTKLEIK
notes: as for B2
In the case of B4, the binding result (in test [2]; with mutant HB-EGF F115A; with mutant HB-EGF I117A) was “binds” each time.

The record behind these values is US20160083464A1 (MEDICAL AND BIOLOGICAL LABORATORIES, published 2016).
